Tests used:
Cys403 [1] = molecular target: T1, Cys403 (UniProt position 403, RPVIHCRAGVG); test: chemical modification; details: ligand-free enzyme
Cys403 [2] = molecular target: T1, Cys403; test: kinetics; details: 25 °C; constant ionic strength buffer mix (value not stated); 50 mM sodium acetate, 100 mM Tris, 100 mM bis-Tris; steady-state turnover with the substrate pNPP
Asp356 = Asp356 (UniProt position 356, VGNWPDQTAVS); test: kinetics; details: 25 °C; constant ionic strength buffer mix (value not stated); 50 mM sodium acetate, 100 mM Tris, 100 mM bis-Tris; steady-state turnover with the substrate pNPP
Asp181 [3] = molecular target: Asp181 (UniProt position 181, YTTWPDFGVPE); test: kinetics; details: 25 °C; constant ionic strength buffer mix (value not stated); 50 mM sodium acetate, 100 mM Tris, 100 mM bis-Tris; steady-state turnover with the substrate pNPP
Cys215 = Cys215 (UniProt position 215, PVVVHCSAGIG); test: kinetics; details: 25 °C; constant ionic strength buffer mix (value not stated); 50 mM sodium acetate, 100 mM Tris, 100 mM bis-Tris; steady-state turnover with the substrate pNPP
Asp181 [4] = molecular target: Asp181 (UniProt position 181, YGTWPDFGVPE); test: kinetics; details: 25 °C; constant ionic strength buffer mix (value not stated); 50 mM sodium acetate, 100 mM Tris, 100 mM bis-Tris; steady-state turnover with the substrate pNPP

Substance | pKa (Cys403 [1]) | pKa (Cys403 [1]; cited from earlier work) | pKa (Cys403 [2]) | pKa (Asp356) | pKa (Asp181 [3]) | pKa (Cys215) | pKa (Asp181 [4])
YopH (Yersinia protein tyrosine phosphatase), wild type (Yersinia (species not stated in the article)) | 4.6 ± 0.2 | 4.67 ± 0.15 | 5.02 ± 0.27 | 5.58 ± 0.34 | – | – | –
Protein tyrosine phosphatase 1B (PTP1B), wild type (Homo sapiens) | – | – | – | – | 6.44 ± 0.26 | 5.08 ± 0.20 | –
PTP1B T177G (Homo sapiens; T177G) | – | – | – | – | – | 5.44 ± 0.37 | 6.37 ± 0.28
